Test results taken from patent US20190195891A1, “DIAGNOSTIC AND THERAPEUTIC USES OF EXOSOMES” (Yeda Research and Development Co. Ltd., priority 2016, published 2019).
Positions count from the first letter of the chain named. In names and notes the source's numbering stands. Entries after “also recorded” stand apart in the source; their conditions may differ.

Legend:
HepG2 cells [1] = experiment: Fate of EGFR after EGF binding in control and MLKL knocked-down HepG2 cells (immunocytochemistry); format: cell-based, human; settings: 2 hours after ligand binding; for cellular levels of the EGFR: HepG2 cells after EGF application; for difference in EGFR between cells expressing MLKL and cells deficient of it: control vs MLKL knocked-down HepG2 cells
Experimental: (§1) Bafilomycin A1 from Santa Cruz Biotechnology was applied to the cells at 100 nM. Chloroquine was applied at 25 μM, 4-hydroxytamoxifen was applied at 1 μM, and ionomycin was applied at 1 μM, ultra pure LPS, applied at 1 μg/ml (all from Sigma). Human ECF from Biological industries, mouse EGF from ProSpec and human TNF from Ybdy were biotinylated using an EZ-Link biotinylation kit (Thermo Fisher Scientific) and then applied to the cells at 5 μg/ml or injected intravenously into mice at a dose of 10 μg/mouse. Bovine serum albumin (BSA), tagged with gold particles (BSA-gold, CMC Utrecht), was applied to the cells at an optical density of 2. To trigger necroptosis, TNF (1000 units/ml) was applied together with the bivalentIAP (inhibitor of apoptosis protein) antagonist BV6 and the caspase inhibitor z-VAD-fmk, both from WuXu App Tec, at concentrations of 1 μM and 20 μM respectively. IL-1β ELISA kit was from eBiosicne.
Prior to ligand treatment the cells were incubated for 12 hours in serum-free medium. Biotinylated EGF and TNF were applied to the cells for 30 minutes on ice in CO2-independent medium (Thermo Fisher Scientific), and this was followed by rinsing and rther incubation without those ligands at 37° C. For western blot analysis, cellular proteins were extracted at the indicated times in RIPA buffer (20 mM Tris-HCl pH 7.5, 150 mM NaCl, 1 mM EDTA, 1 mM EGTA, 1% NP-40, 0.5% sodium deoxycholate, 0.1% sodium dodecyl sulfate (SDS), protease and phosphatase inhibitors). For immunofluorescence microscopy, cells were fixed in 4% paraformaldehyde (PFA) in PBS and then stained with fluorescence-conjugated antibodies.
Immunostaining was performed as described previously [Yoon S. et al., Cell death and differentiation (2016) 23, 253-260]. Briefly, cells fixed with 4% PFA in PBS were permeabilized by incubation in methanol at −20° C. for 10 minutes, followed by incubation in blocking buffer (20% normal goat serum (NGS), 2% BSA, 0.3 M glycine and 0.1% Tween-20 in PBS, pH 7.2). Following incubation with the indicated antibodies, images were obtained using an Olympus IX 81 confocal microscope (Olympus Imaging), with a UPLSAPO 60×1.35 NA oil objective and FluoView FV1000 software (Olympus Imaging). Images were processed using Imaris software from Bitplane.

HT29 cells = experiment: Exosome generation by HT29 cells after triggering necroptosis (Nanoparticle Tracking Analysis, western blot); format: cell-based, human; settings: HT-29 cells treated with TBZ
Experimental: as §1, with “To trigger necroptosis, TNF (1000 units/ml) was applied together with the bivalentIAP (inhibitor of apoptosis protein) antagonist BV6 and the caspase inhibitor z-VAD-fmk, both from WuXu App Tec, at concentrations of 1 μM and 20 μM respectively. IL-1β ELISA kit was from eBiosicne.” left out
(§2) In all experiments aimed at assessing the generation of exosomes by cultured cells, the FBS supplementing the growth medium was pre-depleted of bovine exosomes by centrifugation at […] for 18 hours. […] The stimuli whose effect on exosome generation was to be assessed were applied for the indicated times towards the end of this 12 hour period. […] Size spectra and amounts of the particles in the exosome preparations were determined by Nanoparticle Tracking Analysis using the NanoSight NS300 device (Malvern Instruments) according to the manufacturer's instructions.
Cells and liver samples were extracted in RIPA and in 1% SDS, respectively. […] Band intensity was quantified using the ImageJ software.

MEFs = experiment: Exosome generation by MEFs, ionomycin treatment; format: cell-based, mouse
Experimental: as §1, with “To trigger necroptosis, TNF (1000 units/ml) was applied together with the bivalentIAP (inhibitor of apoptosis protein) antagonist BV6 and the caspase inhibitor z-VAD-fmk, both from WuXu App Tec, at concentrations of 1 μM and 20 μM respectively. IL-1β ELISA kit was from eBiosicne.” left out
as §2

HepG2 cells [2] = experiment: Exosome generation by HepG2 cells, ionomycin treatment; format: cell-based, human
Experimental: as §1, with “To trigger necroptosis, TNF (1000 units/ml) was applied together with the bivalentIAP (inhibitor of apoptosis protein) antagonist BV6 and the caspase inhibitor z-VAD-fmk, both from WuXu App Tec, at concentrations of 1 μM and 20 μM respectively. IL-1β ELISA kit was from eBiosicne.” left out
as §2

[3] = system: MLKL knocked-down HT-29 cells; experiment: Yield of exosomes in MLKL knocked-down HT-29 cells inducibly expressing MLKL mutants; format: cell-based, human; settings: inducible expression, compared to wild-type MLKL
Text: (§3) The various mutants of MLKL were expressed inducibly in HT-29 cells in which the endogenous MLKL mRNA was constitutively knocked down. Expression was achieved by lentiviral infection with the GEV16/pF5x UAS system as described previously [Dunning C J et al. The EMBO Journal (2007) 26, 3227-3237, doi:10.1038/sj.emboj.7601748].
In all experiments aimed at assessing the generation of exosomes by cultured cells, the FBS supplementing the growth medium was pre-depleted of bovine exosomes by centrifugation at […] for 18 hours. Except where otherwise indicated, the exosomes were collected after 12 hours of incubation. The stimuli whose effect on exosome generation was to be assessed were applied for the indicated times towards the end of this 12 hour period. Unless otherwise indicated, TBZ was applied for 4 hours. For recovery of exosomes from the mice, mouse blood samples were collected in MiniCollect®TUBEs (Greiner Bio-One) and centrifuged at 3000 rpm for 15 minutes. Mouse plasma and cell-growth media were passed through 0.2 μm filters and centrifuged at […] for 90 minutes, after which the pellet was suspended in phosphate-buffered saline (PBS) and re-sedimented by centrifugation as above. Size spectra and amounts of the particles in the exosome preparations were determined by Nanoparticle Tracking Analysis using the NanoSight NS300 device (Malvern Instruments) according to the manufacturer's instructions.

[4] = system: MLKL knocked-down HT-29 cells; experiment: Cell death in MLKL knocked-down HT-29 cells inducibly expressing MLKL mutants; format: cell-based, human; settings: induced expression of the mutant
Text: as §3
Cell death was quantified using the Cytotoxicity Detection Kit (Roche Applied Science) to determine the concentration of lactic dehydrogenase (LDH) in the mouse cell media or plasma.

[5] = system: MLKL knocked-down HT-29 cells; settings: cited from earlier work; for death in HT29 cells on inducible expression: Yoon et al. (2016); for induction of necroptosis/death by TBZ: as previously reported (Sun et al. 2012; Quarato et al. 2016)
[6] = system: MLKL knocked-down HepG2 cells; experiment: Levels of EGF and EGFR in MLKL knocked-down HepG2 cells inducibly expressing MLKL mutants (western blot); format: cell-based, human; settings: EGF applied 7 hours after induction
HepG2 cells [7] = experiment: Cell death of HepG2 cells inducibly expressing MLKL mutants; format: cell-based, human; settings: inducible expression in HepG2 cells

Molecule: CCN(CC)CCCC(C)Nc1ccnc2cc(Cl)ccc12 (stereo not shown) [chloroquine]
- cellular levels of the EGFR (HepG2 cells [1]): withhold the decrease
- difference in EGFR between cells expressing MLKL and cells deficient of it (HepG2 cells [1]): obliterate the difference
- difference in EGFR between cells expressing MLKL and cells deficient of it (HepG2 cells [1]; listed as CQ): equal accumulation of EGFR

Molecule: CN1C(=O)C(Cc2c[nH]c3ccccc23)NC1=S (stereo not shown) [necrostatin-1]
- effect on enhancement of exosome generation by TBZ (HT29 cells): block this enhancement; also recorded: reversal

Molecule: CO/C1=C\C(C)=C\[C@@H](C)[C@@H](O)[C@@H](C)C/C(C)=C/C=C/[C@H](OC)[C@@H]([C@@H](C)[C@@H](O)[C@H](C)[C@@]2(O)C[C@@H](O)[C@H](C)[C@@H](C(C)C)O2)OC1=O [bafilomycin A1]
- cellular levels of the EGFR (HepG2 cells [1]): withhold the decrease
- difference in EGFR between cells expressing MLKL and cells deficient of it (HepG2 cells [1]): obliterate the difference
- difference in EGFR between cells expressing MLKL and cells deficient of it (HepG2 cells [1]; listed as Baf A1): equal accumulation of EGFR

Molecule: C[C@H](CCC(=O)O)C[C@H](C)C[C@H](C)C(=O)/C=C(\O)[C@H](C)C[C@H](C)C/C=C/[C@@H](C)[C@@H](O)[C@@H](C)[C@@H](O)C[C@@H]1CC[C@@](C)([C@H]2CC[C@@](C)([C@@H](C)O)O2)O1 [ionomycin]
- generation of exosomes (MEFs; MEFs): enhanced generation of exosomes
- generation of exosomes (MEFs; MEFs deficient of MLKL): no such enhancement
- generation of exosomes (HepG2 cells [2]; HepG2 cells): enhanced generation of exosomes
- generation of exosomes (HepG2 cells [2]; HepG2 cells deficient of MLKL): no such enhancement

B1: MLKL deletion mutant corresponding to its 180 N-terminal amino acid coiled-coil region: MLKL deletion mutant, 180 N-terminal amino acids (protein, UniProt Q8NB16 1-180, looked up, fragment)
chain: MENLKHIITLGQVIHKRCEEMKYCKKQCRRLGHRVLGLIKPLEMLQDQGKRSVPSEKLTTAMNRFKAALEEANGEIEKFSNRSNICRFLTASQDKILFKDVNRKLSDVWKELSLLLQVEQRMPVSPISQGASWAQEDQQDADEDRRAFQMLRRDNEKIEASLRRLEINMKEIKETLRQYL
- generation of exosomes [3]: significantly lower
- cell death [4]: triggers necrotic death of the cells

B2: T357E/S358D: MLKL with phospho-mimetic mutations of the residues that are the targets of phosphorylation by RIPK3 (protein, UniProt Q8NB16 1-471, looked up, variant T357E S358D)
Mixed lineage kinase …: MENLKHIITLGQVIHKRCEEMKYCKKQCRRLGHRVLGLIKPLEMLQDQGKRSVPSEKLTTAMNRFKAALEEANGEIEKFSNRSNICRFLTASQDKILFKDVNRKLSDVWKELSLLLQVEQRMPVSPISQGASWAQEDQQDADEDRRAFQMLRRDNEKIEASLRRLEINMKEIKETLRQYLPPKCMQEIPQEQIKEIKKEQLSGSPWILLRENEVSTLYKGEYHRAPVAIKVFKKLQAGSIAIVRQTFNKEIKTMKKFESPNILRIFGICIDETVTPPQFSIVMEYCELGTLRELLDREKDLTLGKRMVLVLGAARGLYRLHHSEAPELHGKIRSSNFLVTQGYQVKLAGFELRKTQEDMSLGTTREKTDRVKSTAYLSPQELEDVFYQYDVKSEIYSFGIVLWEIATGDIPFQGCNSEKIRKLVAVKRQQEPLGEDCPSELREIIDECRAHDPSVRPSVDEILKKLSTFSK
- generation of exosomes [3]: levels higher than in cells expressing the wild type protein
- death in HT29 cells on inducible expression [5]: triggers death
- intracellular degradation of EGF and EGFR following uptake [6]: facilitated
- death of HepG2 cells within the time of the test (HepG2 cells [7]): no death

B3: 5A: MLKL in which Lys5, Lys16 Arg17, and Lys50 Arg51 were replaced with alanine (protein, UniProt Q8NB16 1-471, looked up, variant K5A K16A R17A K50A R51A)
Mixed lineage kinase …: B2 Mixed lineage kinase … with K5A, K16A, R17A, K50A, R51A, E357T, D358S
- generation of exosomes [3]: failed to generate exosomes
- induction of necroptosis/death by TBZ [5]: arrest death induction

B4: T357A/S358A: MLKL with the RIPK3 targeted residues replaced with alanine (protein, UniProt Q8NB16 1-471, looked up, variant T357A S358A)
Mixed lineage kinase …: B2 Mixed lineage kinase … with E357A, D358A
- generation of exosomes [3]: compromised
- induction of necroptosis/death by TBZ [5]: compromised

B5: K230M/Q356A: MLKL with mutations within the ATP-binding pocket imposing the conformational change attained after phosphorylation (protein, UniProt Q8NB16 1-471, looked up, variant K230M Q356A)
Mixed lineage kinase …: B2 Mixed lineage kinase … with K230M, Q356A, E357T, D358S
- generation of exosomes [3]: levels higher than in cells expressing the wild type protein
- death in HT29 cells on inducible expression [5]: triggers death
- intracellular degradation of EGF and EGFR following uptake [6]: facilitated
- death of HepG2 cells within the time of the test (HepG2 cells [7]): about 1%
